Experimental data as given in IntAct's records for PubMed 20729554.

B1: Matrilin-1 (Homo sapiens), P21941 (parent)
chain: MRVLSGTSLMLCSLLLLLQALCSPGLAPQSRGHLCRTRPTDLVFVVDSSRSVRPVEFEKVKVFLSQVIESLDVGPNATRVGMVNYASTVKQEFSLRAHVSKAALLQAVRRIQPLSTGTMTGLAIQFAITKAFGDAEGGRSRSPDISKVVIVVTDGRPQDSVQDVSARARASGVELFAIGVGSVDKATLRQIASEPQDEHVDYVESYSVIEKLSRKFQEAFCVVSDLCATGDHDCEQVCISSPGSYTCACHEGFTLNSDGKTCNVCSGGGGSSATDLVFLIDGSKSVRPENFELVKKFISQIVDTLDVSDKLAQVGLVQYSSSVRQEFPLGRFHTKKDIKAAVRNMSYMEKGTMTGAALKYLIDNSFTVSSGARPGAQKVGIVFTDGRSQDYINDAAKKAKDLGFKMFAVGVGNAVEDELREIASEPVAEHYFYTADFKTINQIGKKLQKKICVEEDPCACESLVKFQAKVEGLLQALTRKLEAVSKRLAILENTVV

Variants of: B1
Conditions: with co2a1_bovin COL2A1, P02459
Sequence of co2a1_bovin COL2A1, P02459 (P02459 whole entry): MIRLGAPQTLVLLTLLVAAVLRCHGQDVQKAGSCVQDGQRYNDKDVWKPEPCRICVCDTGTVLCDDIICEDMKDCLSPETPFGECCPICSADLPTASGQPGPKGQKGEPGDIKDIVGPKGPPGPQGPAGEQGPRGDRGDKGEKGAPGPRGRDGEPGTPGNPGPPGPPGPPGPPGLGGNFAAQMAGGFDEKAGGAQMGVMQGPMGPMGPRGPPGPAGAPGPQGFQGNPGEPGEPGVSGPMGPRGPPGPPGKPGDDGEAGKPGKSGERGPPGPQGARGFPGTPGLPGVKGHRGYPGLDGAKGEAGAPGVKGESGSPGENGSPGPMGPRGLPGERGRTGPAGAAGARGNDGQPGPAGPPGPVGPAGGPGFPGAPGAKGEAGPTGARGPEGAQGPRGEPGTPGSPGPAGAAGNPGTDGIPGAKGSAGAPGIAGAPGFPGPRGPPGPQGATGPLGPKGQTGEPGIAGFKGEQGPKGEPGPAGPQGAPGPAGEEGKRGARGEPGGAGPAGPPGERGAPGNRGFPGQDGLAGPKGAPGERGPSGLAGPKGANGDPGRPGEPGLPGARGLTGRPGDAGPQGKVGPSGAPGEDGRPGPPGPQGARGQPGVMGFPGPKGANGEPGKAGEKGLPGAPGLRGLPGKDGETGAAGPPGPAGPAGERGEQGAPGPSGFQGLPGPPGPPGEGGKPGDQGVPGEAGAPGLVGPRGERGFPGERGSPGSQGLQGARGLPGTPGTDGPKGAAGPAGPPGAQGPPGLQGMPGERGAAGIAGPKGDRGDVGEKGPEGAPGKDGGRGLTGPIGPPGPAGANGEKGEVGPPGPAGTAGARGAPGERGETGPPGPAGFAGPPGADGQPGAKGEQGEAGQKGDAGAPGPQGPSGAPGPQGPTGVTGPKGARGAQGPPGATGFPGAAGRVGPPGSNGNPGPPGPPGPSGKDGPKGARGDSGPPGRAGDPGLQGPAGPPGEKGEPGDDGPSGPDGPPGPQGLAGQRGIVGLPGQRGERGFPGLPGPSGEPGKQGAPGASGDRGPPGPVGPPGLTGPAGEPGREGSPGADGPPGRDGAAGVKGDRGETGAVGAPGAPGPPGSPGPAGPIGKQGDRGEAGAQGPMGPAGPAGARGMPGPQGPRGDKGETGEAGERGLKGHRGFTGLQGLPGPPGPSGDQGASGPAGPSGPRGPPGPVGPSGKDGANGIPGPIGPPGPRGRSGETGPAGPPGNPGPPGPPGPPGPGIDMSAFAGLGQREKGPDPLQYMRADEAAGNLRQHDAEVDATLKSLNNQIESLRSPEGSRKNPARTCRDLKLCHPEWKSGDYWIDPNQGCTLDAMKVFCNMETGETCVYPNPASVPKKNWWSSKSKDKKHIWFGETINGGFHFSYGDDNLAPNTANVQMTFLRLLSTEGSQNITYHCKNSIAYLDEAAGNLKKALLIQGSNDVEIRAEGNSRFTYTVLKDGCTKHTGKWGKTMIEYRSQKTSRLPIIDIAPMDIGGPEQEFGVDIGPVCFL

Row | effect of a mutation on the interaction | Variant
1 | with no effect | N344A

Variants of: B1
Conditions: with co2a1_bovin COL2A1, P02459
Remark: another data set of the same source

Row | effect of a mutation on the interaction | Variant
2 | increasing interaction strength | N76A
